B1: 10-28 (antibody, V domains shown)
VH: QVQLVESGGGVVQPGRSLRLSCAASGFTFSSYDMHWVRQAPGKGLEWVAVISYDGSSKFYAESVKGRFTISRDNSKNTLYLQMNSLRAEETAVYYCVKDGEQLVPLFDYWGQGTLVTVSS
VL: not shown
B2: 10-28 Fab (Fab, V domains shown)
VH: B1 VH
VL: not shown
B3: 10-40 (antibody, V domains shown)
VH: QLQLQESGPGLVKPSETLSLTCTVSGGSISSSNFYWGWIRQPPGKGLEWIASITYSGRTFYNPSLKSRVAISVDTSKNQFSLKLSSVTAADTAVYYCARTFPSYYDRSGYHYLNYGMDVWGQGTTVTVSS
VL: NFMLTQPHSMSESPGKTVTISCTRSSGSIASNYVQWYQQRPGSSPTTVIYEDNQRPSGVPDRFSGSIDSSSNSASLTISGLKTEDEADYYCQSYDSSSWVFGGGTKLTVL
B4: 10-40 Fab (Fab, V domains shown)
VH: B3 VH
VL: B3 VL

How the values were obtained:
[1] = target: RBD of Rf1 (Bat SARS CoV Rf1/2004, UniProt Q0QDZ0); experiment: ELISA
[2] = target: SARS-CoV-2 WA1 RBD (SARS-CoV-2, UniProt P0DTC2); experiment: crystal structure

| Binder | binding result [1] | binding result [2] |
| --- | --- | --- |
| B1 | binds | – |
| B2 | – | binds |
| B3 | binds | – |
| B4 | – | binds |

Source: publication doi:10.1101/2021.12.11.472236 (bioRxiv, 2021)
